Results published in patent publication US20160185837A1, “GIP AND GLP-1 RECEPTOR DUAL-AGONISTS FOR THE TREATMENT OF DIABETES” (Medimmune Limited, priority 2013, published 2016).

T1: mouse GIP receptor (mouse) (UniProt Q0P543)
T1 sequence (looked up): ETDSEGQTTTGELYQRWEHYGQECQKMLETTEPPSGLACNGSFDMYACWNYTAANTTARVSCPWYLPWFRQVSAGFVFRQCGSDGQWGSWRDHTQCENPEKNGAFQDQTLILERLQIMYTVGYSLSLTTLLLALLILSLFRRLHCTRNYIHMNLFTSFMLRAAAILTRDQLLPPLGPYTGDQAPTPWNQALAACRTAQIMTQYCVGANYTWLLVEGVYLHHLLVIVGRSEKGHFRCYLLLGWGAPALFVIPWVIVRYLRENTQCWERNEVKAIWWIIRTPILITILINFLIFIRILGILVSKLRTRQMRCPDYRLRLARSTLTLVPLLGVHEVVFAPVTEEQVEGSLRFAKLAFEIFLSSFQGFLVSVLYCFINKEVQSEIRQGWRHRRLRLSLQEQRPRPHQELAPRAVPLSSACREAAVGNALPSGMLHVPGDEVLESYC

T2: rat GIP receptor (rat) (UniProt P43219)
T2 sequence (looked up): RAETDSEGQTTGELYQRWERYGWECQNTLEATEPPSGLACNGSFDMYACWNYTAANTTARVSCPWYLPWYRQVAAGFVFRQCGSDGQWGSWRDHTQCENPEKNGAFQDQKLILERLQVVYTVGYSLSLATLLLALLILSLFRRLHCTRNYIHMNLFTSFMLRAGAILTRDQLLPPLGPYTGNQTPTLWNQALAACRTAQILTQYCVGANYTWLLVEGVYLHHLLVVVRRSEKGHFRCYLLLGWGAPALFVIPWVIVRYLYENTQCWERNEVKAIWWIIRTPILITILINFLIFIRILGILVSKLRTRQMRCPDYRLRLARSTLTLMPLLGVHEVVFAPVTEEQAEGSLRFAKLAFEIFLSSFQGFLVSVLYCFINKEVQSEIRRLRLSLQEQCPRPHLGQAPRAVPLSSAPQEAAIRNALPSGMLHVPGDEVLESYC

T3: human GIP receptor (human) (UniProt P48546)
T3 sequence (looked up): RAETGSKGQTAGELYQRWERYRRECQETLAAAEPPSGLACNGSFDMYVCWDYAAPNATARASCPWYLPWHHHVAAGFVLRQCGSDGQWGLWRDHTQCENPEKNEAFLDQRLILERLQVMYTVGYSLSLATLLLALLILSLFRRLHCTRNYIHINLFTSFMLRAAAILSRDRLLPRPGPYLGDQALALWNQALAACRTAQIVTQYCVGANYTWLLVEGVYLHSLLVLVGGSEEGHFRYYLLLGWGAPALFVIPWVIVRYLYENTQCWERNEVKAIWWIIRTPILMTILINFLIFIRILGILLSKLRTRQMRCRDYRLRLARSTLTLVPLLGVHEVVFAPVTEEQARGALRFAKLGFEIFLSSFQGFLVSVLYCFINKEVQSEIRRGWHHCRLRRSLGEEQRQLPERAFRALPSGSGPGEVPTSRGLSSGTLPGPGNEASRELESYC


What was measured:
Assay in all cases: cell-based or functional assay
[1] = target: T1, mouse GIP receptor (mouse)
rat GIP receptor (rat) = target: T2, rat GIP receptor (rat)
[2] = target: mouse GLP-1 receptor (mouse) (UniProt O35659)
mouse GLP-1 receptor (mouse), sequence (O35659 22-463): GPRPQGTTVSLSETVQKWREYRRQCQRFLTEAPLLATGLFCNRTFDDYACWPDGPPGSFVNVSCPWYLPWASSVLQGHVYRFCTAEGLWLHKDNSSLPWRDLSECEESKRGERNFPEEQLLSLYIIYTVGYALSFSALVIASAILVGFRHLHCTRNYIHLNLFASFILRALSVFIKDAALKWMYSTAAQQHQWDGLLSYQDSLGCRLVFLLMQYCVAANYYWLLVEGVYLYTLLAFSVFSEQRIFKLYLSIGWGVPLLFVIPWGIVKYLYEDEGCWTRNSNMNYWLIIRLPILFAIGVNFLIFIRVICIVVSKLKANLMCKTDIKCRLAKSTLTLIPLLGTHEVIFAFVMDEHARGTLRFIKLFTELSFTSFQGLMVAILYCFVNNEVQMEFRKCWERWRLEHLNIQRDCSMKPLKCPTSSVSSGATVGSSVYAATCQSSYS

rat GLP-1 receptor (rat) = rat GLP-1 receptor (rat) (UniProt P32301)
rat GLP-1 receptor (rat), sequence (P32301 22-463): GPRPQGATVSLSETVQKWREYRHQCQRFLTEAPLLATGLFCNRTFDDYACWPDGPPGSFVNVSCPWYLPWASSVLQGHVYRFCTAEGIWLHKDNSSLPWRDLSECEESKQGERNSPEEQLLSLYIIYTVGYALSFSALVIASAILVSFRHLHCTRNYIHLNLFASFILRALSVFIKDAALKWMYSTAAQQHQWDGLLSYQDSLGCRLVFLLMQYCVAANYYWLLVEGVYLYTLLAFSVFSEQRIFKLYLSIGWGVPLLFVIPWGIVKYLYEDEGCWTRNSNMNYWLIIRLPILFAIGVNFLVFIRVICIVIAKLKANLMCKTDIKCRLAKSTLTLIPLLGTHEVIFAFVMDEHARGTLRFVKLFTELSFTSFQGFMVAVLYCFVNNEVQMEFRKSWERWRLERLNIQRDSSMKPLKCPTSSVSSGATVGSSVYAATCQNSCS

[3] = target: human glucagon receptor (human) (UniProt P47871)
human glucagon receptor (human), sequence (P47871 26-477): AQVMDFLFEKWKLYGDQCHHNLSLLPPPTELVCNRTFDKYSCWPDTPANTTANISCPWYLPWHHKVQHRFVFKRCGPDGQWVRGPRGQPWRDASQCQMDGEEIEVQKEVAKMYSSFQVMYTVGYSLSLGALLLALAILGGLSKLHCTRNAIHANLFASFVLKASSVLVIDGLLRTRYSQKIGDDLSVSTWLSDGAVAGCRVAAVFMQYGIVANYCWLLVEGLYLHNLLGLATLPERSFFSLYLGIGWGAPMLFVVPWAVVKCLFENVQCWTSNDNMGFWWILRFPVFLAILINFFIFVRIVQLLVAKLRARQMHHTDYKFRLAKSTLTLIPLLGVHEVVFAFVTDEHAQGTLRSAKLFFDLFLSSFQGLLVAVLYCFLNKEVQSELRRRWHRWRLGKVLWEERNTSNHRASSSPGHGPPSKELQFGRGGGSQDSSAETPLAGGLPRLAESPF

[4] = target: human GLP-1 receptor (human) (UniProt P43220)
human GLP-1 receptor (human), sequence (P43220 24-463): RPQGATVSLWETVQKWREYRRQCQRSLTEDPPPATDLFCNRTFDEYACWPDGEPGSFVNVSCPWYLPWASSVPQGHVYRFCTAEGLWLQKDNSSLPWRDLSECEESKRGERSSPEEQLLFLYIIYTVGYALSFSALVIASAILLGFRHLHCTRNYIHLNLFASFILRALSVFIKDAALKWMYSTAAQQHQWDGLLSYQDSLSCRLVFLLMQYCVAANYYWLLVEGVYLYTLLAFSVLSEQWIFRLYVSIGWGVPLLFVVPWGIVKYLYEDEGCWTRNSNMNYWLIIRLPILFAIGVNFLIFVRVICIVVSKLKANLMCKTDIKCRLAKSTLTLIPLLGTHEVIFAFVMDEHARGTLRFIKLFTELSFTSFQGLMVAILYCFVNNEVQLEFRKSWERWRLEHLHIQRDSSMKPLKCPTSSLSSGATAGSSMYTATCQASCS

[5] = target: T3, human GIP receptor (human)

cAMP EC50 [1]	cAMP EC50 (rat GIP receptor (rat))	cAMP EC50 [2]	cAMP EC50 (rat GLP-1 receptor (rat))	cAMP EC50 [3]	cAMP EC50 [4]	cAMP EC50 [5]	cAMP EC50, hGIPr (C3) line [5]	cAMP EC50, Batch 2 [1]	cAMP EC50, Batch 2 (rat GIP receptor (rat))	cAMP EC50, Batch 2 [2]	cAMP EC50, Batch 2 (rat GLP-1 receptor (rat))	cAMP EC50, Batch 2 [3]	cAMP EC50, Batch 2 [4]	Binder
3.2 nM	1.7 nM	> 1130 nM	47 nM	1100 nM	230 nM	0.26 nM								IP305 (Fc fusion) YSEGTFISDYSIALAAAAVRDFVNWLLAGGGGGGGSGGGGSGGGGSGGGGSATHTCPPC
0.083 nM	0.055 nM	93 nM	7 nM	1200 nM	26 nM	0.018 nM								IP302 (Fc fusion) YSEGTFISDYSIALAAAAQQDFVNWLLAGGGGGGGSGGGGSGGGGSGGGGSATHTCPPC
0.95 nM	0.43 nM	1500 nM	61 nM	> 2420 nM	670 nM	0.074 nM								IP311 (Fc fusion) YSEGTFISDYSIALAAAAIDDFVNWLLAGGGGGGGSGGGGSGGGGSGGGGSATHTCPPC
0.17 nM	0.09 nM	> 1520 nM	700 nM	1500 nM	1300 nM	0.025 nM								IP308 (Fc fusion) YSEGTFISDYSIALAAAAAKDFVNWLLAGGGGGGGSGGGGSGGGGSGGGGSATHTCPPC
15 nM	0.88 nM	> 906 nM	450 nM	740 nM	> 906 nM	0.23 nM								IP314 (Fc fusion) YSEGTFISDYSKLLAAAAVRDFVNWLLAGGGGGGGSGGGGSGGGGSGGGGSATHTCPPC
0.5 nM	0.02 nM	0.69 nM	0.058 nM	610 nM	0.18 nM	0.0085 nM								IP364 (Fc fusion) YSEGTFTSDFSKLLERQAIDEFIAWLLKGGAAAGGSGSTASSGSGSATGGGGAATHTCPPC
0.031 nM	0.0099 nM	390 nM	8 nM	> 1300 nM	4.4 nM	0.057 nM	13 nM							IP367 (Fc fusion) YSEGTFTSDYRILKERQAIDEFIAWLLKGGAAAGGSGSTASSGSGSATGGGGAATHTCPPC
0.056 nM	0.016 nM	100 nM	14 nM	> 10200 nM	6.1 nM	0.14 nM								IP366 (Fc fusion) YSEGTFTSDYRMLKERQAIDEFIAWLLKGGAAAGGSGSTASSGSGSATGGGGAATHTCPPC
10 nM	0.06 nM	10 nM	0.23 nM	> 17600 nM	0.54 nM	0.0095 nM								IP394 (Fc fusion) YSEGMHTSDLSKLLERQAIDEFIAWLLKGGAAAGGSGSTASSGSGSATGGGGAATHTCPPC
3.2 nM	0.035 nM	9.2 nM	0.9 nM	> 6790 nM	0.72 nM	0.0054 nM								IP373 (Fc fusion) YSEGTHTSDFSKLLERQAIDEFIAWLLKGGAAAGGSGSTASSGSGSATGGGGAATHTCPPC
0.65 nM	0.07 nM	49 nM	3.9 nM	> 11700 nM	4 nM	0.078 nM								IP375 (Fc fusion) YSEGTHTSLFSKLLERQAIDEFIAWLLKGGAAAGGSGSTASSGSGSATGGGGAATHTCPPC
0.55 nM	0.014 nM	0.86 nM	0.059 nM	1200 nM	0.16 nM	0.0079 nM								IP349 (Fc fusion) YSEGTFTSDYSKLLERQAIDEFIANLLKGGGGGGGSGGGGSGGGGSGGGGSGGGGSGGGGSA
0.68 nM	0.02 nM	0.27 nM	0.023 nM	710 nM	0.071 nM	0.0089 nM								IP369 (Fc fusion) YSEGTFTSDYSKLLERQAIDEFIAHLLKGGGGGGGSGGGGSGGGGSGGGGSGGGGSGGGGSA
0.52 nM	0.0089 nM	3.6 nM	0.0076 nM	620 nM	0.13 nM	0.0069 nM								IP352 (Fc fusion) YSEGTFTSDYSKLLERQAIDEFIAMLLKGEGGGGGSGGGGSGGGGSGGGGSGGGGSGGGGSA
1.3 nM	0.024 nM	2.7 nM	0.21 nM	> 1360 nM	0.86 nM	0.013 nM								IP350 (Fc fusion) YSEGTFTSDYSKLLERQAIDEFIAGLLKGGGGGGGSGGGGSGGGGSGGGGSGGGGSGGGGSA
1.3 nM	0.22 nM	> 4860 nM	370 nM	> 4860 nM	230 nM	0.2 nM								IP368 (Fc fusion) YSEGTFTSDYRQAIDRQAIDEFIAWLLKGGGGGGGSGGGGSGGGGSGGGGSACPPC
18 nM	1.1 nM	30 nM	0.16 nM	> 1560 nM	0.47 nM	0.012 nM								IP385 (Fc fusion) YSEGTFTSDYSIYLDRQAIDEFIAWLLKGGGGGGGSGGGGSGGGGSGGGGSACPPC
0.28 nM	0.19 nM	1.2 nM	0.057 nM	330 nM	0.11 nM	0.0093 nM		0.78 nM	0.014 nM	2.5 nM	0.01 nM	250 nM	0.11 nM	IP396 (Fc fusion) YSEGTFTSDYSKLLERQAIDEFIAWLLKGGGGGGGSGGGGSGGGGSGGGGSACPPC
0.21 nM	0.044 nM	750 nM	50 nM	> 1250 nM	98 nM	0.026 nM								IP332 (Fc fusion) YSEGTFTSDYSIALAAAAQQDFVNWLLAGGGGGGGSGGGGSGGGGSGGGGSGGGGSGGGGSA
